Consider 3 molecules from paper PMC2777442 (Nucleic Acids Research, 2009).

Series [1] concerns the target T1, TFAM (mature, MTS removed) (Homo sapiens, UniProt Q00059 50-246).
T1 sequence: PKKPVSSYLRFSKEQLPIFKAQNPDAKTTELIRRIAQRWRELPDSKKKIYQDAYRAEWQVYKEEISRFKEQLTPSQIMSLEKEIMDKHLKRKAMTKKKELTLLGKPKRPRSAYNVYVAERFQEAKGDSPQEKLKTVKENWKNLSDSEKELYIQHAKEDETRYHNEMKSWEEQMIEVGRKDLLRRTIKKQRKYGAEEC
In words: fluorescence anisotropy. Background: In fluorescence polarisation assays a small probe gives low polarisation when free and higher when bound to something large.

The target of series [2] is T1, TFAM (mature, MTS removed). In words: fluorescence anisotropy. This is another data set of the same source.
The series “AUC” concerns the molecule itself. In words: AUC.

Read-outs that look alike come from different tables or passages of the source.

B1: Bulged-DNA-S (dsDNA)
DNA 1: CGATATTAAGAGCC
DNA 2: GGCTCAATATCG
For the molecule B1, the “apparent K (half saturation)” value in series [1] was determined as 164 ± 17 nM.

B2: Normal-DNA-S (dsDNA)
DNA 1: CGATATTGAGCC
DNA 2: GGCTCAATATCG
For the molecule B2, the “apparent K (half saturation)” value in series [2] was 413 ± 59 nM.

B3: Human mitochondrial transcription factor A (TFAM), residues 50-246 (natural protein, UniProt Q00059-1 50-246, looked up)
chain: PKKPVSSYLRFSKEQLPIFKAQNPDAKTTELIRRIAQRWRELPDSKKKIYQDAYRAEWQVYKEEISRFKEQLTPSQIMSLEKEIMDKHLKRKAMTKKKELTLLGKPKRPRSAYNVYVAERFQEAKGDSPQEKLKTVKENWKNLSDSEKELYIQHAKEDETRYHNEMKSWEEQMIEVGRKDLLRRTIKKQRKYGAEEC
As to B3, the “stoichiometry N” value in “AUC” worked out at 2.

As a reminder, the stoichiometry N is the number of molecules, sites or subunits per partner or assembly.
